Test results taken from article PMC7878818 (2021).
Each block holds one binder with its values, some of them ahead of it. Ends that are not written are not given here. Me3 = trimethyl group on lysine (trimethyl-lysine); Me2 = dimethyl group on lysine (dimethyl-lysine)

Key:
Assay in all cases: ITC
[1] = target: Spindlin1/C11orf84 complex (human, UniProt Q9Y657 50-262; Q9BUA3 1-381)
[2] = target: Spindlin1 F141A/C11orf84 complex (human, UniProt Q9Y657 50-262; Q9BUA3 1-381, F141A)
[3] = target: Spindlin1 W72A/C11orf84 complex (human, UniProt Q9Y657 50-262; Q9BUA3 1-381, W72A)
Chain of Spindlin1 W72A/C11orf84 complex (Q9Y657 50-262 W72A, chain 1 of 2): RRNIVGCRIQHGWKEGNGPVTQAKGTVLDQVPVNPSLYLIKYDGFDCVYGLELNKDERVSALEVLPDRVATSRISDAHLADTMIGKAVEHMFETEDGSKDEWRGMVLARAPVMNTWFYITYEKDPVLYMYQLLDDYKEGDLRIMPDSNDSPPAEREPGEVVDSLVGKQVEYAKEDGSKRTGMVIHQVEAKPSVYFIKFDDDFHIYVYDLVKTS
Chain of Spindlin1 W72A/C11orf84 complex (Q9BUA3 whole entry, chain 2 of 2): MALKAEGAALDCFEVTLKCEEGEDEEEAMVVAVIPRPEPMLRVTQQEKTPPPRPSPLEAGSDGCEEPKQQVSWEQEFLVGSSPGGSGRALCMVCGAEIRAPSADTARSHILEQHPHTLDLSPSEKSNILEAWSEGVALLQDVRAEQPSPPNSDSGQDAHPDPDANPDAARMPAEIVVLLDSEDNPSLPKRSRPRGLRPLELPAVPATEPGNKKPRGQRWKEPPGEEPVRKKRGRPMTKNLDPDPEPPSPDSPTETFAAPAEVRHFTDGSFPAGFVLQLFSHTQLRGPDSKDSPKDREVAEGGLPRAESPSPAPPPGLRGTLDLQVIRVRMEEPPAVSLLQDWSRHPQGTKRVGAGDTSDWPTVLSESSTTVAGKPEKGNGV

[4] = target: Spindlin1 W62A/C11orf84 complex (human, UniProt Q9Y657 50-262; Q9BUA3 1-381, W62A)
Chain of Spindlin1 W62A/C11orf84 complex (Q9Y657 50-262 W62A, chain 1 of 2): as the sequence (Q9Y657 50-262 W72A, chain 1 of 2) above, with W13A, A23W counted along it
Chain of Spindlin1 W62A/C11orf84 complex (Q9BUA3 whole entry, chain 2 of 2): as the sequence (Q9BUA3 whole entry, chain 2 of 2) above

[5] = target: Spindlin1 W62A/W72A/C11orf84 complex (human, UniProt Q9Y657 50-262; Q9BUA3 1-381, W62A | W72A)
Chain of Spindlin1 W62A/W72A/C11orf84 complex (Q9Y657 50-262 W62A/W72A, chain 1 of 2): as the sequence (Q9Y657 50-262 W72A, chain 1 of 2) above, with W13A counted along it
Chain of Spindlin1 W62A/W72A/C11orf84 complex (Q9BUA3 whole entry, chain 2 of 2): as the sequence (Q9BUA3 whole entry, chain 2 of 2) above

[6] = target: Spindlin1 Y91A/C11orf84 complex (human, UniProt Q9Y657 50-262; Q9BUA3 1-381, Y91A)
Chain of Spindlin1 Y91A/C11orf84 complex (Q9Y657 50-262 Y91A, chain 1 of 2): as the sequence (Q9Y657 50-262 W72A, chain 1 of 2) above, with A23W, Y42A counted along it
Chain of Spindlin1 Y91A/C11orf84 complex (Q9BUA3 whole entry, chain 2 of 2): as the sequence (Q9BUA3 whole entry, chain 2 of 2) above

[7] = target: Spindlin1 Y98A/C11orf84 complex (human, UniProt Q9Y657 50-262; Q9BUA3 1-381, Y98A)
Chain of Spindlin1 Y98A/C11orf84 complex (Q9Y657 50-262 Y98A, chain 1 of 2): as the sequence (Q9Y657 50-262 W72A, chain 1 of 2) above, with A23W, Y49A counted along it
Chain of Spindlin1 Y98A/C11orf84 complex (Q9BUA3 whole entry, chain 2 of 2): as the sequence (Q9BUA3 whole entry, chain 2 of 2) above

[8] = target: Spindlin1 D173A/C11orf84 complex (human, UniProt Q9Y657 50-262; Q9BUA3 1-381, D173A)
Chain of Spindlin1 D173A/C11orf84 complex (Q9Y657 50-262 D173A, chain 1 of 2): as the sequence (Q9Y657 50-262 W72A, chain 1 of 2) above, with A23W, D124A counted along it
Chain of Spindlin1 D173A/C11orf84 complex (Q9BUA3 219-305, chain 2 of 2): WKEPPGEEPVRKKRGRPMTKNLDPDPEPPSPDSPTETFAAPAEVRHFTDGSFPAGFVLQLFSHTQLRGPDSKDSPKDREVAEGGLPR

Chain of Spindlin1/C11orf84 complex (Q9Y657 50-262, chain 1 of 2): as the sequence (Q9Y657 50-262 W72A, chain 1 of 2) above, with A23W counted along it
Chain of Spindlin1/C11orf84 complex (Q9BUA3 219-305, chain 2 of 2): as the sequence (Q9BUA3 219-305, chain 2 of 2) above
Chain of Spindlin1 F141A/C11orf84 complex (Q9Y657 50-262 F141A, chain 1 of 2): as the sequence (Q9Y657 50-262 W72A, chain 1 of 2) above, with A23W, F92A counted along it
Chain of Spindlin1 F141A/C11orf84 complex (Q9BUA3 whole entry, chain 2 of 2): as the sequence (Q9BUA3 whole entry, chain 2 of 2) above

Binder: ARTK(Me3)QTARK(Me2)STG [H3K4me3K9me2 peptide]
Kd [1]: 42 nM

Binder: ARTKQTARKSTG (K9me3) [H3K9me3 peptide]
Kd [1]: 2880 nM

Binder: ARTK(Me3)QTARKSTG [H3K4me3 peptide]
Kd [1]: 213 nM

Continued, values first:

Kd [2]: 869 nM | Kd [3]: 77 nM | Kd [4]: 71 nM | Kd [5]: 199 nM | Kd [6]: 59 nM | Kd [7]: 80 nM | Kd [8]: 57 nM
Binder: ARTK(Me3)QTARK(Me3)STG [H3K4me3K9me3 peptide]

Kd [1]: 82 nM
Binder: ARTK(Me3)QTAR(asymmetric Me2)KSTG [H3K4me3R8me2a peptide]
